In patent publication US20040019188A1, “Targeting through integrins” (priority 2000, published 2004) one finds ID30 data, which are given here for 1 molecule.

This experiment has as its target α5β1 integrin (major fibronectin receptor) on HEp-2 cells (human), P08648.

α5β1 integrin (major fibronectin receptor) on HEp-2 cells (human), P08648, sequence (P08648 42-1049, chain 1 of 2): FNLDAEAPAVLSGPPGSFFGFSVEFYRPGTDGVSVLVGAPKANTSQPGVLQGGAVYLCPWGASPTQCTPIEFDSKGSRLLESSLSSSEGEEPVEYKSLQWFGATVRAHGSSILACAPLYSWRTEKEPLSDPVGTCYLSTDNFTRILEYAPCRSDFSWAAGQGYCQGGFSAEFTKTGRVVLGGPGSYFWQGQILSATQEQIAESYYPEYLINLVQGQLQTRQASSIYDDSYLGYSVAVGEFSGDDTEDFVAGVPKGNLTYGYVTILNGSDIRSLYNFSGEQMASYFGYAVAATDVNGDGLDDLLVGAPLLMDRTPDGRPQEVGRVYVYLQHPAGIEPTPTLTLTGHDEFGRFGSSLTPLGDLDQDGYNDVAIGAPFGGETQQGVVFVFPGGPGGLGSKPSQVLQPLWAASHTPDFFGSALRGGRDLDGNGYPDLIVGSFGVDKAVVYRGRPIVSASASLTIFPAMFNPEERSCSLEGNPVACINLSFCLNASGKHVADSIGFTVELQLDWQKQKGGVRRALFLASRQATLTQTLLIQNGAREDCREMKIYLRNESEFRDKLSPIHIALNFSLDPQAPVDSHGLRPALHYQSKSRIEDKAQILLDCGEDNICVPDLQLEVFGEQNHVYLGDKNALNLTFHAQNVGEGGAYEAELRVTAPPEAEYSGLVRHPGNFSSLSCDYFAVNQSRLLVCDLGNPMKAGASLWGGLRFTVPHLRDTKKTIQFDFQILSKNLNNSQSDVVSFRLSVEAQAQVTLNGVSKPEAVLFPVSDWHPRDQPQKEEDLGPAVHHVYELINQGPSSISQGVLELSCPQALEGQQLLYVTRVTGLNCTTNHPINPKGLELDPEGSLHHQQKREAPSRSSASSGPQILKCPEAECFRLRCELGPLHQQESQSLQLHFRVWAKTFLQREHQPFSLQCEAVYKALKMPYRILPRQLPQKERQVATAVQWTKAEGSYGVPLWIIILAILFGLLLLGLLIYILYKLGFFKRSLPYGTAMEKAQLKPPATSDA
α5β1 integrin (major fibronectin receptor) on HEp-2 cells (human), P08648, sequence (P05556 21-798, chain 2 of 2, further chain): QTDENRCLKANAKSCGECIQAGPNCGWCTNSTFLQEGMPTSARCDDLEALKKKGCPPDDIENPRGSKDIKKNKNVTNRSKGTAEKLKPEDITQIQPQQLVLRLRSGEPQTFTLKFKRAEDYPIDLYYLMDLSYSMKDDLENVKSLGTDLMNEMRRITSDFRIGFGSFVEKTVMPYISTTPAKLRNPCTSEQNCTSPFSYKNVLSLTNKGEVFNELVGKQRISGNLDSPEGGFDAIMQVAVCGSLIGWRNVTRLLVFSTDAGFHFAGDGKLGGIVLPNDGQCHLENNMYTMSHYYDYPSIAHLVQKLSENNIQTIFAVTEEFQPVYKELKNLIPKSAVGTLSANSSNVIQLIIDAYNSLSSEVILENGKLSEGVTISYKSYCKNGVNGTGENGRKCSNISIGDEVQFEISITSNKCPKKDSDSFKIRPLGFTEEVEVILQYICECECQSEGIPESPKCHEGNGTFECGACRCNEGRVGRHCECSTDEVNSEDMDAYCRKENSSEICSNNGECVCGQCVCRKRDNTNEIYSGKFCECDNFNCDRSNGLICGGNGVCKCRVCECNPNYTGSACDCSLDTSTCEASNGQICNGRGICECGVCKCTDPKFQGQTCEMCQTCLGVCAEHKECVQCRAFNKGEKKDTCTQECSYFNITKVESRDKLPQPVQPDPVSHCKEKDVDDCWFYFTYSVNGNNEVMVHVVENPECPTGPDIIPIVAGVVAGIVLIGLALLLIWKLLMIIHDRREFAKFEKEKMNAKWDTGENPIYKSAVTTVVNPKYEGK

RGDS (modifications not checked) [RGDS peptide (Gibco)] registered an ID30 of 170 µM.
